Measured values: US20140087995A1 (published 2014)
Where two headings read alike, the source gives them in different places. Numbered stars: 1 amine (or outer) side, 2 acyl side, 3 side chain; on linkers, the order of the positions; unused ones are H or OH. Bridge positions count the residues as written; N and C are the ends. Square brackets hold non-standard residues; d marks the D form. Side chains are listed from the residue outwards. Ends that are not written are not given here. * marks the point of attachment. C20 diacid = O=C(O)CCCCCCCCCCCCCCCCCCC(=O)*; γGlu = O=C(O)[C@H](CCC(=O)[*:2])N[*:1]; AEEA = NCCOCCOCC(=O)O

T1: rat calcitonin receptor (rat, UniProt P32214 25-516)
T1 construct: whole, on cells; In cell membranes prepared from transiently transfected BHK tk'ts 13 cells (Assay VIII); also called rCTR; rat calcitonin (a) receptor
T1 sequence (looked up): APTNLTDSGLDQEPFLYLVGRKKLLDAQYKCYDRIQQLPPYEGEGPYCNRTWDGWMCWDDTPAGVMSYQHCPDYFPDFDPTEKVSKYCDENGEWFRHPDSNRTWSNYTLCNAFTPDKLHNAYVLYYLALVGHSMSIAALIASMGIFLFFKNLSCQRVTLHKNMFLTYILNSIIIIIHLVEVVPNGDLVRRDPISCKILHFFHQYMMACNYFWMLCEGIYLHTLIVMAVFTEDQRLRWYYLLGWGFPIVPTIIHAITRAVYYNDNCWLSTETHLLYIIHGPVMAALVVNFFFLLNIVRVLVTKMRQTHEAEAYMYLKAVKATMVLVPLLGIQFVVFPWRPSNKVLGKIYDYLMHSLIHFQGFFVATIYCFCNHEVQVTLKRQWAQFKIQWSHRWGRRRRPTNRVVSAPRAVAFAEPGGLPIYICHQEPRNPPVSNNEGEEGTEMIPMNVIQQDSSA

T2: rat amylin receptor (rat calcitonin receptor + rat RAMP 3) (rat, UniProt P32214 25-516; Q9JJ73 23-147)
T2 construct: whole, on cells; Receptor complex in cell membranes prepared from transiently transfected BHK tk'ts 13 cells (Assay VI); also called rAmylin-R; rat amylin 3(a) receptor
T2 sequence (looked up) 1: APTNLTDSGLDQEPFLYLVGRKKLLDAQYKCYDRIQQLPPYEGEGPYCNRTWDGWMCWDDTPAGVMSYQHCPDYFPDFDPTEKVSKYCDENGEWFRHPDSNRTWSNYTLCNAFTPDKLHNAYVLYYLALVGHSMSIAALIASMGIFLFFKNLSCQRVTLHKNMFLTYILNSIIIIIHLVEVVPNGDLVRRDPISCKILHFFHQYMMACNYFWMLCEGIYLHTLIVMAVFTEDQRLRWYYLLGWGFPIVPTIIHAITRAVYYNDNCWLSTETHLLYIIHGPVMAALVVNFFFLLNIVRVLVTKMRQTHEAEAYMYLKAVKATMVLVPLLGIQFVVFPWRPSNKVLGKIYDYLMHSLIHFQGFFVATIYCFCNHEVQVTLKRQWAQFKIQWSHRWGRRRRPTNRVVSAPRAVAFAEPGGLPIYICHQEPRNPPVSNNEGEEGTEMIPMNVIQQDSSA
T2 sequence (looked up) 2: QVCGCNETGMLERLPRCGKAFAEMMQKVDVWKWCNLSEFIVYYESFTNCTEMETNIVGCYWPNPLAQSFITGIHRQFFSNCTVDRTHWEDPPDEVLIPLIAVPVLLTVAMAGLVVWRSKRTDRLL

T3: human amylin receptor (amylin 3(a) receptor: human calcitonin receptor plus RAMP-3) (human, UniProt P30988 25-474; O60896 24-148)
T3 sequence (looked up) 1: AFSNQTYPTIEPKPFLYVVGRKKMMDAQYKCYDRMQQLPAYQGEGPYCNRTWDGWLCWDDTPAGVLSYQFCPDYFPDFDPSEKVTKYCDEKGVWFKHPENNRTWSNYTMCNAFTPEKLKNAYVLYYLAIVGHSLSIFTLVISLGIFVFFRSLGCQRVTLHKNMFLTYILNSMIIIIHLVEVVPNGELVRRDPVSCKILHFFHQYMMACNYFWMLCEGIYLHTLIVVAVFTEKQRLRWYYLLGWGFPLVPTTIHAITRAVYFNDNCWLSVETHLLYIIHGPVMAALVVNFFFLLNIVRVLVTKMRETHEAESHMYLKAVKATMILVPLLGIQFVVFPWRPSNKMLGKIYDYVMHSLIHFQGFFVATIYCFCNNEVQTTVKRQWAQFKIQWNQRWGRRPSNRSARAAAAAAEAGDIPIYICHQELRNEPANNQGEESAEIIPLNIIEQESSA
T3 sequence (looked up) 2: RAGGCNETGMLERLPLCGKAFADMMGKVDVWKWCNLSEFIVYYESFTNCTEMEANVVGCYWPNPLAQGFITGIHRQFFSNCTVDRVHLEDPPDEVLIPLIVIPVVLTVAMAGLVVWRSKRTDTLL

T4: human calcitonin receptor (human, UniProt P30988 25-474)
T4 sequence (looked up): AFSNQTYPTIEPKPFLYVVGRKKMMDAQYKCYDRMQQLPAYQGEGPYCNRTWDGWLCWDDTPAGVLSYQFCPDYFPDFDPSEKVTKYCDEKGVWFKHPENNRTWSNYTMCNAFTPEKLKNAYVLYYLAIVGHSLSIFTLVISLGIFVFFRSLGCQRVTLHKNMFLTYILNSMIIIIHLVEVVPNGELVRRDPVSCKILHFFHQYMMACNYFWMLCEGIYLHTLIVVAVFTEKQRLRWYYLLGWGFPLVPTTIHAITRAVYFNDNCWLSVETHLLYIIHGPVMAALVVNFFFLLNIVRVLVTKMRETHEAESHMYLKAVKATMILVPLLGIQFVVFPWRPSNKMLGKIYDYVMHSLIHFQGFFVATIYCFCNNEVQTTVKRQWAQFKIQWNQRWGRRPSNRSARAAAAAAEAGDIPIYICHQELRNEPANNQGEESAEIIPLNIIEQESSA


What was measured:
rat calcitonin receptor = target: T1, rat calcitonin receptor; assay: SPA competition binding, displacement of 125I-Calcitonin from membranes of BHK tk'ts 13 cells with rat calcitonin receptor (Assay VIII)
[1] = target: T2, rat amylin receptor (rat calcitonin …); assay: SPA competition binding, displacement of 125I-rat amylin from membranes of BHK tk'ts 13 cells with rat calcitonin receptor + rat RAMP 3 (Assay VI)
Procedure: (§1) The binding assay was performed using scintillation proximity assay (SPA) beads (RPNQ0001) from PerkinElmer and cell membranes from the Amylin 3(a)/CRE-luc cells (as described in Assay (II)) were used. Membranes were prepared in the following way; the cells were rinsed with PBS and incubated with Versene for approximately 5 min before harvesting. The cells were flushed with PBS and the cell-suspension was centrifuged for 5 min at 1000 rpm. Cells were homogenized (ultrathurrax) in a buffer containing 20 mM Na-HEPES and 10 mM EDTA (pH 7.4) and centrifuged at 20.000 rpm for 15 min. The resulting pellet was resuspended, homogenized and centrifuged (20.000 rpm, 15 min) in a buffer containing 20 mM Na-HEPES and 0.1 mM EDTA (pH 7.4, buffer 2). The resulting pellet was resuspended in buffer 2 and protein concentration was measured (BCA protein Assay, Pierce). The homogenate was kept cold during the whole procedure. The membranes were kept at −80° C. until use. The assay was performed in a 384 well Optiplate (PerkinElmer) in a total volume of 40 ul. Membranes were mixed with SPA beads. Final concentration of membranes 35 ng/μL final and SPA beads was 0.05 mg/well. Test-compounds were dissolved in DMSO and further diluted in assay buffer (50 mM Hepes, pH 7.4, 1 mM CaCl2, 5 mM MgCl₂, 0.1% OA and 0.02% Tween20). […] The final mixture was incubated with shaking at 400 rpm for 120 min at 25° C. prior to centrifugation (1500 rpm, 10 min). Samples were analyzed on TopCounter™ (Packard). The IC₅₀ was calculated using (one site binding competition analysis) GraphPad Prism5 as a measure of receptor affinity.
Cells were grown in DMEM with 10% FBS and 1% Pen/Strep. Approximately 48 hours after transfection, the cells were harvested and membranes were prepared.

[2] = target: T3, human amylin receptor (amylin 3(a) …); assay: cell-based or functional assay
[3] = target: T4, human calcitonin receptor; assay: cell-based or functional assay
[4] = target: T3, human amylin receptor (amylin 3(a) …); assay: cell-based or functional assay; remark: listed apart in the source
[5] = target: T4, human calcitonin receptor; assay: cell-based or functional assay; remark: listed apart in the source
[6] = target: T3, human amylin receptor (amylin 3(a) …); assay: SPA competition, displacement of 125I-rat amylin from membranes of BHK cells with human calcitonin receptor + RAMP-3 (Assay V)
Procedure: as §1

[7] = target: T3, human amylin receptor (amylin 3(a) …); assay: as above; remark: listed apart in the source
Procedure: as §1

| IC50 (rat calcitonin receptor) [nM] | IC50 [1] [nM] | Ratio hCT/hAmylin funct. [2] | hAmylin-R funct. EC50 (pM) [2] [pM] | hCTR funct. EC50 (pM) [3] [pM] | Ratio hCT/hAmylin funct. [4] | hAmylin-R funct. EC50 (pM) [4] [pM] | hCTR funct. EC50 (pM) [5] [pM] | IC50 [6] [nM] | IC50 [7] [nM] | Binder |
| --- | --- | --- | --- | --- | --- | --- | --- | --- | --- | --- |
| 536 | 1.69 |  |  |  |  |  |  |  |  | K([γGlu-γGlu-C20 diacid])CNTATCATQRLA[dD]FLRHSSPNFGAIPSSTNVGSRTY-NH2 (disulfide 2-7; N-terminus assumed; SMILES CC[C@H](C)[C@H](NC(=O)[C@H](C)NC(=O)CNC(=O)[C@H](Cc1ccccc1)NC(=O)[C@H](CC(N)=O)NC(=O)[C@@H]1CCCN1C(=O)[C@H](CO)NC(=O)[C@H](CO)NC(=O)[C@H](Cc1c[nH]cn1)NC(=O)[C@H](CCCNC(=N)N)NC(=O)[C@H](CC(C)C)NC(=O)[C@H](Cc1ccccc1)NC(=O)[C@@H](CC(=O)O)NC(=O)[C@H](C)NC(=O)[C@H](CC(C)C)NC(=O)[C@H](CCCNC(=N)N)NC(=O)[C@H](CCC(N)=O)NC(=O)[C@@H](NC(=O)[C@H](C)NC(=O)[C@@H]1CSSC[C@H](NC(=O)[C@@H](N)CCCCNC(=O)CC[C@H](NC(=O)CC[C@H](NC(=O)CCCCCCCCCCCCCCCCCCC(=O)O)C(=O)O)C(=O)O)C(=O)N[C@@H](CC(N)=O)C(=O)N[C@@H]([C@@H](C)O)C(=O)N[C@@H](C)C(=O)N[C@@H]([C@@H](C)O)C(=O)N1)[C@@H](C)O)C(=O)N1CCC[C@H]1C(=O)N[C@@H](CO)C(=O)N[C@@H](CO)C(=O)N[C@H](C(=O)N[C@@H](CC(N)=O)C(=O)N[C@H](C(=O)NCC(=O)N[C@@H](CO)C(=O)N[C@@H](CCCNC(=N)N)C(=O)N[C@H](C(=O)N[C@@H](Cc1ccc(O)cc1)C(N)=O)[C@@H](C)O)C(C)C)[C@@H](C)O, residue 14 is D-aspartic acid (printed 14d)) |
|  |  | 35 | 89 | 3120 | 35 | 89 | 3120 | 0.115 | 0.115 | K([AEEA-γGlu-C20 diacid])CNTATCATQRLANFLRHSSPNFGAIPSSTPVGSHTY-NH2 (disulfide 2-7; N-terminus assumed; SMILES CC[C@H](C)[C@H](NC(=O)[C@H](C)NC(=O)CNC(=O)[C@H](Cc1ccccc1)NC(=O)[C@H](CC(N)=O)NC(=O)[C@@H]1CCCN1C(=O)[C@H](CO)NC(=O)[C@H](CO)NC(=O)[C@H](Cc1c[nH]cn1)NC(=O)[C@H](CCCNC(=N)N)NC(=O)[C@H](CC(C)C)NC(=O)[C@H](Cc1ccccc1)NC(=O)[C@H](CC(N)=O)NC(=O)[C@H](C)NC(=O)[C@H](CC(C)C)NC(=O)[C@H](CCCNC(=N)N)NC(=O)[C@H](CCC(N)=O)NC(=O)[C@@H](NC(=O)[C@H](C)NC(=O)[C@@H]1CSSC[C@H](NC(=O)[C@@H](N)CCCCNC(=O)COCCOCCNC(=O)CC[C@H](NC(=O)CCCCCCCCCCCCCCCCCCC(=O)O)C(=O)O)C(=O)N[C@@H](CC(N)=O)C(=O)N[C@@H]([C@@H](C)O)C(=O)N[C@@H](C)C(=O)N[C@@H]([C@@H](C)O)C(=O)N1)[C@@H](C)O)C(=O)N1CCC[C@H]1C(=O)N[C@@H](CO)C(=O)N[C@@H](CO)C(=O)N[C@H](C(=O)N1CCC[C@H]1C(=O)N[C@H](C(=O)NCC(=O)N[C@@H](CO)C(=O)N[C@@H](Cc1c[nH]cn1)C(=O)N[C@H](C(=O)N[C@@H](Cc1ccc(O)cc1)C(N)=O)[C@@H](C)O)C(C)C)[C@@H](C)O, also called compound 57) |
|  |  | 21.9 | 47 | 1030 | 21.9 | 47 | 1030 | 0.088 | 0.088 | K([AEEA-γGlu-C20 diacid])CNTATCATQRLANFLRHSSPNFGAIPSSTNVGPHTY-NH2 (disulfide 2-7; N-terminus assumed; SMILES CC[C@H](C)[C@H](NC(=O)[C@H](C)NC(=O)CNC(=O)[C@H](Cc1ccccc1)NC(=O)[C@H](CC(N)=O)NC(=O)[C@@H]1CCCN1C(=O)[C@H](CO)NC(=O)[C@H](CO)NC(=O)[C@H](Cc1c[nH]cn1)NC(=O)[C@H](CCCNC(=N)N)NC(=O)[C@H](CC(C)C)NC(=O)[C@H](Cc1ccccc1)NC(=O)[C@H](CC(N)=O)NC(=O)[C@H](C)NC(=O)[C@H](CC(C)C)NC(=O)[C@H](CCCNC(=N)N)NC(=O)[C@H](CCC(N)=O)NC(=O)[C@@H](NC(=O)[C@H](C)NC(=O)[C@@H]1CSSC[C@H](NC(=O)[C@@H](N)CCCCNC(=O)COCCOCCNC(=O)CC[C@H](NC(=O)CCCCCCCCCCCCCCCCCCC(=O)O)C(=O)O)C(=O)N[C@@H](CC(N)=O)C(=O)N[C@@H]([C@@H](C)O)C(=O)N[C@@H](C)C(=O)N[C@@H]([C@@H](C)O)C(=O)N1)[C@@H](C)O)C(=O)N1CCC[C@H]1C(=O)N[C@@H](CO)C(=O)N[C@@H](CO)C(=O)N[C@H](C(=O)N[C@@H](CC(N)=O)C(=O)N[C@H](C(=O)NCC(=O)N1CCC[C@H]1C(=O)N[C@@H](Cc1c[nH]cn1)C(=O)N[C@H](C(=O)N[C@@H](Cc1ccc(O)cc1)C(N)=O)[C@@H](C)O)C(C)C)[C@@H](C)O, also called compound 58) |
